{"source": "IntAct's records for PubMed 15530371", "target": "T1, cdkn3_human CDKN3 (UniProt Q16667)", "T1 sequence": "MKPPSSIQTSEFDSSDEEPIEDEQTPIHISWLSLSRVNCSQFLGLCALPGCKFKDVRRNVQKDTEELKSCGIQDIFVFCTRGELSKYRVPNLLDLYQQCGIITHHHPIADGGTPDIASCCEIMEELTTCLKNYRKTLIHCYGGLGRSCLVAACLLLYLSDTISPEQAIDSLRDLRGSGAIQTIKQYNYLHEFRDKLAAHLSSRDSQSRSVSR", "data": [{"substance": "Cyclin-dependent kinase 2 (Homo sapiens) (from UniProt P24941) K237V", "values": [{"measurement": "effect of a mutation on the interaction", "result": "disrupting interaction"}]}]}
